Test results as given in article PMC3141245.

How the values were obtained:
JBP1 D525A = JBP1 D525A (UniProt Q9U6M1 1-827, D525A); assay: fluorescence anisotropy
DB-JBP1 K436A = DB-JBP1 K436A (Leishmania tarentolae, UniProt Q9U6M1 382-561, K436A); assay: fluorescence anisotropy
DB-JBP1 K535A = DB-JBP1 K535A (Leishmania tarentolae, UniProt Q9U6M1 382-561, K535A); assay: fluorescence anisotropy
DB-JBP1 D536A = DB-JBP1 D536A (Leishmania tarentolae, UniProt Q9U6M1 382-561, D536A); assay: SPR
DB-JBP1 D525A = DB-JBP1 D525A (Leishmania tarentolae, UniProt Q9U6M1 382-561, D525A); assay: SPR

B1: VSG T-DNA 14-mer (dsDNA)
DNA 1: GGCAGCTGCAACAA
DNA 2: TTGTTGCAGCTGCC
- Kd (JBP1 D525A): 11.7 µM

B2: VSG J-DNA 14-mer (dsDNA)
DNA 1: GGCAGCTGCAACAA
DNA 2: TTGTTGCAGCTGCC
modifications: base J (beta-D-glucosyl-hydroxymethyluracil) replaces T7 of strand 1
- binding result (DB-JBP1 K436A): binds
- binding result (DB-JBP1 K535A): binds

B3: VSG J-DNA 14-mer, biotin (dsDNA)
DNA 1: GGCAGCTGCAACAA
DNA 2: TTGTTGCAGCTGCC
modifications: base J replaces T7 of strand 1
- binding result (DB-JBP1 D536A): binds
- binding result (DB-JBP1 D525A): no binding
